Laboratory results from paper PMC2588538, “Structure of Reovirus σ1 in Complex with Its Receptor Junctional Adhesion Molecule-A” (PLoS Pathogens, 2008).

B1: reovirus type 3 Dearing (T3D) σ1 fragment comprising the head domain and one β-spiral of the tail (σ1H; residues 293–455) (domain or fragment)
chain: GSSPNLRYPIADVSGGIGMSPNYRFRQSMWIGIVSYSGSGLNWRVQVNSDIFIVDDYIHICLPAFDGFSIADGGDLSLNFVTGLLPPLLTGDTEPAFHNDVVTYGAQTVAIGLSSGGAPQYMSKNLWVEQWQDGVLRLRVEGGGSITHSNSKWPAMTVSYPRSFT
notes: two non-native residues left at the N-terminus after removal of GST, numbered Gly291 and Ser292; reovirus attachment protein σ1, strain type 3 Dearing (T3D), residues 293-455 (head domain and one β-spiral of the tail); Trimer in the crystal; also called T3D σ1 head domain; not shown: GST, N-terminal, cleaved

Legend:
[1] = target: CAR (Homo sapiens) (UniProt P78310); details: cited from earlier work
[2] = target: the molecule itself; assay: crystal structure; σ1H-D1 complex, 3.4 Å, space group P2_(1)2_(1)2; crystals from 0.1 M CHES pH 9.5, polyethylene glycol 3350, 20°C; two σ1H trimers each with three D1 monomers in the asymmetric unit
[3] = target: the molecule itself; assay: AUC; sedimentation velocity, 50 krpm, 25°C, 20 mM Tris pH 7.5, 100 mM NaCl; five concentrations 0.06 to 1.31 mg/mL; interference optics
[4] = target: the molecule itself; assay: AUC; sedimentation equilibrium, 17.5/25/35 krpm, 25°C, 20 mM Tris pH 7.5, 100 mM NaCl; four concentrations 0.16 to 1.6 mg/mL; monomer-dimer model with variable amounts of tetramer; dimer to monomers
[5] = target: B1; assay: crystal structure; σ1H-D1 complex, 3.4 Å, space group P2_(1)2_(1)2; crystals from 0.1 M CHES pH 9.5, polyethylene glycol 3350, 20°C; two σ1H trimers each with three D1 monomers in the asymmetric unit; details: both partners purified

Molecule: CAR (from UniProt P78310)
- Kd [1]: 16 µM

Molecule: B1
- stoichiometry N [2]: 3

B2: D1 domain of human junctional adhesion molecule-A (hJAM-A D1; residues 28–129) (domain or fragment)
chain: GSSVTVHSSEPEVRIPENNPVKLSCAYSGFSSPRVEWKFDQGDTTRLVCYNNKITASYEDRVTFLPTGITFKSVTREDTGTYTCMVSEEGGNSYGEVKVKLIVL
notes: two non-native residues left at the N-terminus after removal of GST, numbered Gly26 and Ser27; human junctional adhesion molecule-A, membrane-distal D1 domain, residues 28-129; Homodimer in solution at neutral pH; also called wt D1; source: E. coli BL21 (DE3) pLysS, purified (GSTrap, on-column thrombin cleavage, SEC); not shown: GST, N-terminal, cleaved
- stoichiometry N [3]: 2
- Kd [4]: 11 µM
- binding result [5]: binds
